# Numbered stars: 1 amine (or outer) side, 2 acyl side, 3 side chain; on linkers, the order of the positions; unused ones are H or OH. Bridge positions count the residues as written; N and C are the ends. Side chains are listed from the residue outwards. Ends that are not written are not given here. * marks the point of attachment. C20 diacid = O=C(O)CCCCCCCCCCCCCCCCCCC(=O)*; γGlu = O=C(O)[C@H](CCC(=O)[*:2])N[*:1]
# T1: human calcitonin receptor (human, UniProt P30988 25-474)
# T1 construct: whole, on cells; Used as cell membranes; also called hCTR; hCT
# T1 sequence (looked up): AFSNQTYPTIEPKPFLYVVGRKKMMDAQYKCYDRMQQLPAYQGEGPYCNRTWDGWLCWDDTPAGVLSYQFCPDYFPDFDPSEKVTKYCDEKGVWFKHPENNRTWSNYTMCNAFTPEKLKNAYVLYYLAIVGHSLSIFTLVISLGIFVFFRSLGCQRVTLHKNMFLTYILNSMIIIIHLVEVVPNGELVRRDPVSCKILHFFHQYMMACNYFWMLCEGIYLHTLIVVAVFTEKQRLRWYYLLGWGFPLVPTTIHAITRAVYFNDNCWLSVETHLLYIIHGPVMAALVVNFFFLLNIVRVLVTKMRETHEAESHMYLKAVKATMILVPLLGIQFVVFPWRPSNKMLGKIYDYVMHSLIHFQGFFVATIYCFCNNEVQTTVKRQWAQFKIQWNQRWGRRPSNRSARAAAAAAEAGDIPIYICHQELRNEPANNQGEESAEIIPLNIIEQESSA
# B1: N^ε1-[(4S)-4-carboxy-4-(19-carboxynonadecanoylamino)butanoyl]-[Ala14,Arg17,Pro21,Pro27,His34]-h-amylin (peptide)
# peptide: K([γGlu-C20 diacid])CNTATCATQRLAAFLRHSSPNFGAIPSSTNVGHNTY-NH2
# modifications: disulfide 2-7; N-terminus assumed
# SMILES: CC[C@H](C)[C@H](NC(=O)[C@H](C)NC(=O)CNC(=O)[C@H](Cc1ccccc1)NC(=O)[C@H](CC(N)=O)NC(=O)[C@@H]1CCCN1C(=O)[C@H](CO)NC(=O)[C@H](CO)NC(=O)[C@H](Cc1c[nH]cn1)NC(=O)[C@H](CCCNC(=N)N)NC(=O)[C@H](CC(C)C)NC(=O)[C@H](Cc1ccccc1)NC(=O)[C@H](C)NC(=O)[C@H](C)NC(=O)[C@H](CC(C)C)NC(=O)[C@H](CCCNC(=N)N)NC(=O)[C@H](CCC(N)=O)NC(=O)[C@@H](NC(=O)[C@H](C)NC(=O)[C@@H]1CSSC[C@H](NC(=O)[C@@H](N)CCCCNC(=O)CC[C@H](NC(=O)CCCCCCCCCCCCCCCCCCC(=O)O)C(=O)O)C(=O)N[C@@H](CC(N)=O)C(=O)N[C@@H]([C@@H](C)O)C(=O)N[C@@H](C)C(=O)N[C@@H]([C@@H](C)O)C(=O)N1)[C@@H](C)O)C(=O)N1CCC[C@H]1C(=O)N[C@@H](CO)C(=O)N[C@@H](CO)C(=O)N[C@H](C(=O)N[C@@H](CC(N)=O)C(=O)N[C@H](C(=O)NCC(=O)N[C@@H](Cc1c[nH]cn1)C(=O)N[C@@H](CC(N)=O)C(=O)N[C@H](C(=O)N[C@@H](Cc1ccc(O)cc1)C(N)=O)[C@@H](C)O)C(C)C)[C@@H](C)O
# notes: also called compound 93
# B2: N^ε1-[(4S)-4-carboxy-4-(19-carboxynonadecanoylamino)butanoyl]-[Ala14,Arg17,Pro21,Pro27,Pro34]-h-amylin (peptide)
# peptide: K([γGlu-C20 diacid])CNTATCATQRLAAFLRHSSPNFGAIPSSTNVGPNTY-NH2
# modifications: disulfide 2-7; N-terminus assumed
# SMILES: CC[C@H](C)[C@H](NC(=O)[C@H](C)NC(=O)CNC(=O)[C@H](Cc1ccccc1)NC(=O)[C@H](CC(N)=O)NC(=O)[C@@H]1CCCN1C(=O)[C@H](CO)NC(=O)[C@H](CO)NC(=O)[C@H](Cc1c[nH]cn1)NC(=O)[C@H](CCCNC(=N)N)NC(=O)[C@H](CC(C)C)NC(=O)[C@H](Cc1ccccc1)NC(=O)[C@H](C)NC(=O)[C@H](C)NC(=O)[C@H](CC(C)C)NC(=O)[C@H](CCCNC(=N)N)NC(=O)[C@H](CCC(N)=O)NC(=O)[C@@H](NC(=O)[C@H](C)NC(=O)[C@@H]1CSSC[C@H](NC(=O)[C@@H](N)CCCCNC(=O)CC[C@H](NC(=O)CCCCCCCCCCCCCCCCCCC(=O)O)C(=O)O)C(=O)N[C@@H](CC(N)=O)C(=O)N[C@@H]([C@@H](C)O)C(=O)N[C@@H](C)C(=O)N[C@@H]([C@@H](C)O)C(=O)N1)[C@@H](C)O)C(=O)N1CCC[C@H]1C(=O)N[C@@H](CO)C(=O)N[C@@H](CO)C(=O)N[C@H](C(=O)N[C@@H](CC(N)=O)C(=O)N[C@H](C(=O)NCC(=O)N1CCC[C@H]1C(=O)N[C@@H](CC(N)=O)C(=O)N[C@H](C(=O)N[C@@H](Cc1ccc(O)cc1)C(N)=O)[C@@H](C)O)C(C)C)[C@@H](C)O
# notes: also called compound 94
# B3: N^ε1-[(4S)-4-carboxy-4-(19-carboxynonadecanoylamino)butanoyl]-[Arg14,Arg17,Pro21,Pro27,Pro34]-h-amylin (peptide)
# peptide: K([γGlu-C20 diacid])CNTATCATQRLARFLRHSSPNFGAIPSSTNVGPNTY-NH2
# modifications: disulfide 2-7; N-terminus assumed
# SMILES: CC[C@H](C)[C@H](NC(=O)[C@H](C)NC(=O)CNC(=O)[C@H](Cc1ccccc1)NC(=O)[C@H](CC(N)=O)NC(=O)[C@@H]1CCCN1C(=O)[C@H](CO)NC(=O)[C@H](CO)NC(=O)[C@H](Cc1c[nH]cn1)NC(=O)[C@H](CCCNC(=N)N)NC(=O)[C@H](CC(C)C)NC(=O)[C@H](Cc1ccccc1)NC(=O)[C@H](CCCNC(=N)N)NC(=O)[C@H](C)NC(=O)[C@H](CC(C)C)NC(=O)[C@H](CCCNC(=N)N)NC(=O)[C@H](CCC(N)=O)NC(=O)[C@@H](NC(=O)[C@H](C)NC(=O)[C@@H]1CSSC[C@H](NC(=O)[C@@H](N)CCCCNC(=O)CC[C@H](NC(=O)CCCCCCCCCCCCCCCCCCC(=O)O)C(=O)O)C(=O)N[C@@H](CC(N)=O)C(=O)N[C@@H]([C@@H](C)O)C(=O)N[C@@H](C)C(=O)N[C@@H]([C@@H](C)O)C(=O)N1)[C@@H](C)O)C(=O)N1CCC[C@H]1C(=O)N[C@@H](CO)C(=O)N[C@@H](CO)C(=O)N[C@H](C(=O)N[C@@H](CC(N)=O)C(=O)N[C@H](C(=O)NCC(=O)N1CCC[C@H]1C(=O)N[C@@H](CC(N)=O)C(=O)N[C@H](C(=O)N[C@@H](Cc1ccc(O)cc1)C(N)=O)[C@@H](C)O)C(C)C)[C@@H](C)O
# notes: also called compound 65
# B4: N^ε1-[(4S)-4-carboxy-4-(19-carboxynonadecanoylamino)butanoyl]-[Arg17,Pro21,Pro27,Arg34]-h-amylin (peptide)
# peptide: K([γGlu-C20 diacid])CNTATCATQRLANFLRHSSPNFGAIPSSTNVGRNTY-NH2
# modifications: disulfide 2-7; N-terminus assumed
# SMILES: CC[C@H](C)[C@H](NC(=O)[C@H](C)NC(=O)CNC(=O)[C@H](Cc1ccccc1)NC(=O)[C@H](CC(N)=O)NC(=O)[C@@H]1CCCN1C(=O)[C@H](CO)NC(=O)[C@H](CO)NC(=O)[C@H](Cc1c[nH]cn1)NC(=O)[C@H](CCCNC(=N)N)NC(=O)[C@H](CC(C)C)NC(=O)[C@H](Cc1ccccc1)NC(=O)[C@H](CC(N)=O)NC(=O)[C@H](C)NC(=O)[C@H](CC(C)C)NC(=O)[C@H](CCCNC(=N)N)NC(=O)[C@H](CCC(N)=O)NC(=O)[C@@H](NC(=O)[C@H](C)NC(=O)[C@@H]1CSSC[C@H](NC(=O)[C@@H](N)CCCCNC(=O)CC[C@H](NC(=O)CCCCCCCCCCCCCCCCCCC(=O)O)C(=O)O)C(=O)N[C@@H](CC(N)=O)C(=O)N[C@@H]([C@@H](C)O)C(=O)N[C@@H](C)C(=O)N[C@@H]([C@@H](C)O)C(=O)N1)[C@@H](C)O)C(=O)N1CCC[C@H]1C(=O)N[C@@H](CO)C(=O)N[C@@H](CO)C(=O)N[C@H](C(=O)N[C@@H](CC(N)=O)C(=O)N[C@H](C(=O)NCC(=O)N[C@@H](CCCNC(=N)N)C(=O)N[C@@H](CC(N)=O)C(=O)N[C@H](C(=O)N[C@@H](Cc1ccc(O)cc1)C(N)=O)[C@@H](C)O)C(C)C)[C@@H](C)O
# notes: also called compound 79
# B5: N^ε1-[(4S)-4-carboxy-4-(19-carboxynonadecanoylamino)butanoyl]-[Glu14,Arg17,Pro21,Pro27,Arg34,Glu35]-h-amylin (peptide)
# peptide: K([γGlu-C20 diacid])CNTATCATQRLAEFLRHSSPNFGAIPSSTNVGRETY-NH2
# modifications: disulfide 2-7; N-terminus assumed
# SMILES: CC[C@H](C)[C@H](NC(=O)[C@H](C)NC(=O)CNC(=O)[C@H](Cc1ccccc1)NC(=O)[C@H](CC(N)=O)NC(=O)[C@@H]1CCCN1C(=O)[C@H](CO)NC(=O)[C@H](CO)NC(=O)[C@H](Cc1c[nH]cn1)NC(=O)[C@H](CCCNC(=N)N)NC(=O)[C@H](CC(C)C)NC(=O)[C@H](Cc1ccccc1)NC(=O)[C@H](CCC(=O)O)NC(=O)[C@H](C)NC(=O)[C@H](CC(C)C)NC(=O)[C@H](CCCNC(=N)N)NC(=O)[C@H](CCC(N)=O)NC(=O)[C@@H](NC(=O)[C@H](C)NC(=O)[C@@H]1CSSC[C@H](NC(=O)[C@@H](N)CCCCNC(=O)CC[C@H](NC(=O)CCCCCCCCCCCCCCCCCCC(=O)O)C(=O)O)C(=O)N[C@@H](CC(N)=O)C(=O)N[C@@H]([C@@H](C)O)C(=O)N[C@@H](C)C(=O)N[C@@H]([C@@H](C)O)C(=O)N1)[C@@H](C)O)C(=O)N1CCC[C@H]1C(=O)N[C@@H](CO)C(=O)N[C@@H](CO)C(=O)N[C@H](C(=O)N[C@@H](CC(N)=O)C(=O)N[C@H](C(=O)NCC(=O)N[C@@H](CCCNC(=N)N)C(=O)N[C@@H](CCC(=O)O)C(=O)N[C@H](C(=O)N[C@@H](Cc1ccc(O)cc1)C(N)=O)[C@@H](C)O)C(C)C)[C@@H](C)O
# B6: N^ε1-[(4S)-4-carboxy-4-(19-carboxynonadecanoylamino)butanoyl]-[Glu14,Arg17,Pro21,Pro27,His34,Glu35]-h-amylin (peptide)
# peptide: K([γGlu-C20 diacid])CNTATCATQRLAEFLRHSSPNFGAIPSSTNVGHETY-NH2
# modifications: disulfide 2-7; N-terminus assumed
# SMILES: CC[C@H](C)[C@H](NC(=O)[C@H](C)NC(=O)CNC(=O)[C@H](Cc1ccccc1)NC(=O)[C@H](CC(N)=O)NC(=O)[C@@H]1CCCN1C(=O)[C@H](CO)NC(=O)[C@H](CO)NC(=O)[C@H](Cc1c[nH]cn1)NC(=O)[C@H](CCCNC(=N)N)NC(=O)[C@H](CC(C)C)NC(=O)[C@H](Cc1ccccc1)NC(=O)[C@H](CCC(=O)O)NC(=O)[C@H](C)NC(=O)[C@H](CC(C)C)NC(=O)[C@H](CCCNC(=N)N)NC(=O)[C@H](CCC(N)=O)NC(=O)[C@@H](NC(=O)[C@H](C)NC(=O)[C@@H]1CSSC[C@H](NC(=O)[C@@H](N)CCCCNC(=O)CC[C@H](NC(=O)CCCCCCCCCCCCCCCCCCC(=O)O)C(=O)O)C(=O)N[C@@H](CC(N)=O)C(=O)N[C@@H]([C@@H](C)O)C(=O)N[C@@H](C)C(=O)N[C@@H]([C@@H](C)O)C(=O)N1)[C@@H](C)O)C(=O)N1CCC[C@H]1C(=O)N[C@@H](CO)C(=O)N[C@@H](CO)C(=O)N[C@H](C(=O)N[C@@H](CC(N)=O)C(=O)N[C@H](C(=O)NCC(=O)N[C@@H](Cc1c[nH]cn1)C(=O)N[C@@H](CCC(=O)O)C(=O)N[C@H](C(=O)N[C@@H](Cc1ccc(O)cc1)C(N)=O)[C@@H](C)O)C(C)C)[C@@H](C)O
# notes: also called compound 107
# Biological target: T1, human calcitonin receptor
# Assay: ratio of hCTR IC50 to hAmylin-R IC50 (reference: human amylin receptor)
# Summary of the method: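 Competition binding by SPA with cell membranes (35 ng/μL) and SPA beads in 50 mM Hepes pH 7.4 with 1 mM CaCl2, 5 mM MgCl2, 0.1% OA and 0.02% Tween20. Incubated 120 min at 25 °C with shaking, then counted.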
row,Binder,Ratio hCT/hAmylin binding
1,B1,101
2,B2,46.3
3,B3,82.4
4,B4,46.1
5,B5,28.5
6,B6,11.1

# Biological target: T1, human calcitonin receptor
# Assay: SPA competition on BHK cell membranes, 125I-calcitonin as radioligand (Assay VII)
# Summary of the method: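 BHK hCTR membranes 35 ng/μL + SPA beads 0.05 mg/well; buffer 50 mM Hepes pH 7.4, 1 mM CaCl2, 5 mM MgCl₂, 0.1% OA, 0.02% Tween20. 120 min, 25° C., shaking. Scintillation count; IC50 by one-site binding competition.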
row,Binder,IC50 [µM]
1,B1,0.0178
2,B2,0.00686
3,B3,0.0535
4,B4,0.0364
5,B5,0.00662
6,B6,0.00428
